B1: SARS-CoV-2 ORF6 C3 peptide (peptide)
peptide: YSQLDEEQPMEID
notes: source: synthetic peptide
B2: SARS-CoV ORF6 C3 peptide (peptide)
peptide: YSELDDEEPMELDYP
B3: SARS-CoV ORF6 C3 -YP (peptide)
peptide: YSELDDEEPMELD
B4: SARS-CoV-2 ORF6 C3 lacking the last three residues 59-EID-61 but retaining M58 (peptide)
peptide: YSQLDEEQPM
notes: source: synthetic peptide
B5: MHV-68 ORF10 CTT peptide (peptide)
chain: RAITDGGESPMEWQTL
B6: SARS-CoV-2 ORF6 C4 (peptide)
peptide: DEEQPMEID
notes: source: synthetic peptide
B7: SARS-CoV-2 ORF6 C3 (peptide)
peptide: YSQLDEEQPMEID
notes: source: synthetic peptide
B8: SARS-CoV-2 ORF6 C1 (peptide)
peptide: SLTENKYSQLDEEQPMEID
notes: source: synthetic peptide
B9: SARS-CoV-2 ORF6 C2 (peptide)
peptide: ENKYSQLDEEQPMEID
notes: source: synthetic peptide
B10: SARS-CoV ORF6-YP (peptide)
peptide: YSELDDEEPMELD
B11: VSV-M-NTE (peptide)
peptide: DEMDTHDPNQLRY
B12: SARS-CoV-2- ORF6-EID (peptide)
peptide: YSQLDEEQPM
notes: source: synthetic peptide
B13: SARS-CoV ORF6 C3 (peptide)
peptide: YSELDDEEPMELDYP
B14: Rae1(31-368)-Nup98(157-213) heterodimer (complex)
chain 1: DIEVTSSPDDSIGCLSFSPPTLPGNFLIAGSWANDVRCWEVQDSGQTIPKAQQMHTGPVLDVCWSDDGSKVFTASCDKTAKMWDLSSNQAIQIAQHDAPVKTIHWIKAPNYSCVMTGSWDKTLKFWDTRSSNPMMVLQLPERCYCADVIYPMAVVATAERGLIVYQLENQPSEFRRIESPLKHQHRCVAIFKDKQNKPTGFALGSIEGRVAIHYINPPNPAKDNFTFKCHRSNGTNTSAPQDIYAVNGIAFHPVHGTLATVGSDGRFSFWDKDARTKLKTSEQLDQPISACCFNHNGNIFAYASSYDWSKGHEFYNPQKKNYIFLRNAAEELKPRNKK
chain 2: not shown
notes: also called Rae1-Nup98; Rae1-Nup98 complex

target: T1, Rae1(31-368)-Nup98(157-213) heterodimer (human, UniProt P78406 31-368; P52948 157-213); assay: ITC; conditions: both partners purified
T1 construct: also called Rae1-Nup98; Rae1-Nup98 complex
T1 sequence (P52948 157-213, chain 2 of 2, one chain of several): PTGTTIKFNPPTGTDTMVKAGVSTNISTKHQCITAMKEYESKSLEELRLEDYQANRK

Q: For B1, which Kd is on record?
A: Its Kd is 240 nM.

Q: How did the Kd turn out when B2 was run?
A: The Kd was 370 nM.

Q: B3 was tested. Which Kd did it give?
A: The Kd was 110 nM.

Q: How did the Kd turn out when B4 was run?
A: The Kd was 87700 nM.

Q: B5 was tested. Which Kd did it give?
A: The Kd was 5710 nM.

target: B14; assay: ITC; conditions: both partners purified
Target sequence in this assay (P52948 157-213, chain 2 of 2, one chain of several): as above

Q: What does the source list for B6?
A: Ka: 2.25e+06 M⁻¹; Kd: 440 nM; stoichiometry N: 0.82

Q: Which results are given for B7?
A: Ka: 4.12e+06 M⁻¹; stoichiometry N: 0.9

Q: What does the source list for B8?
A: Ka: 2.62e+06 M⁻¹; Kd: 380 nM; stoichiometry N: 1.06

Q: B9 was tested. Which Ka did it give?
A: The Ka was 3.58e+06 M⁻¹.

Q: And the Kd?
A: The Kd was 270 nM.

Q: And the “stoichiometry N” value?
A: Its value is 1.17.

target: B14; assay: ITC; conditions: both partners purified; remark: another data set of the same source
Target sequence in this assay (P52948 157-213, chain 2 of 2, one chain of several): as above

Q: What does the source list for B10?
A: Ka: 8.89e+06 M⁻¹; stoichiometry N: 0.62

Q: Which results are given for B11?
A: Ka: 8550 M⁻¹; stoichiometry N: 0.304

Q: What does the source list for B12?
A: Ka: 11400 M⁻¹; stoichiometry N: 1.01

Q: Which results are given for B13?
A: Ka: 2.69e+06 M⁻¹; stoichiometry N: 0.63

target: T2, MHV68-ORF10-CTT (murine gammaherpesvirus 68); assay: ITC; conditions: both partners purified
T2 construct: source: synthetic peptide
T2 sequence (P52948 157-213): as the sequence (P52948 157-213, chain 2 of 2, one chain of several) above

Q: B14 was tested. Which Ka did it give?
A: Its Ka is 175000 M⁻¹.

Reference: paper PMC9376891 (Nature Communications, 2022)
